Test results as given in patent US20240301049A1 (Ablynx, published 2024).

Target: T1, cyno IL-6 (cynomolgus monkey, UniProt P79341 28-212, limits assumed)
T1 sequence (looked up): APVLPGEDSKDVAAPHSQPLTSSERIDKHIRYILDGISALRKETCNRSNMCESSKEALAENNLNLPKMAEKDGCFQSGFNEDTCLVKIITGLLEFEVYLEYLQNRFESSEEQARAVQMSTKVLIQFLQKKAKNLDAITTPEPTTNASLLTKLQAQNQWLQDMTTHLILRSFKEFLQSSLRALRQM
Assay: cell-based or functional assay

B1: F027201062 (bispecific antibody)
chain: DVQLVESGGGVVQPGGSLRLSCAASGRTFSNYAMAWFRQAPGKEREFVAVISYAGGRTYYADSVKGRFTISRDNAKNTVYLQMNSLRPEDTALYYCAAVDSPLIATHPRGYDYWGQGTLVTVSSGGGGSGGGSEVQLVESGGGVVQPGGSLRLSCAASGFTFRSFGMSWVRQAPGKGPEWVSSISGSGSDTLYADSVKGRFTISRDNSKNTLYLQMNSLRPEDTALYYCTIGGSLSRSSQGTLVTVSSGGGGSGGGSEVQLVESGGGVVQPGGSLRLSCAASGFTLAYYAIGWFRQAPGKEREGVSCISGSVGTTYYADSVKGRFTISRDNAKNTVYLQMNSLRPEDTALYYCVRSSWFDCGVQGRDLGNEYDYRGQGTLVTVSSGGGGSGGGSEVQLVESGGGVVQPGGSLRLSCTASGFTFSTADMGWFRQAPGKGREFVARISGIDGTTYYDEPVKGRFTISRDNSKNTVYLQMNSLRPEDTALYYCRSPRYADQWSAYDYWGQGTLVKVSSA
notes: anti-IL-6 (17C04, 6B12), anti-HSA (ALB23002), anti-TNF-α (6C11), C-terminal alanine; produced in Pichia pastoris; also called ISVD construct F027201062; Nanobody F027201062
For B1, the “cyno IL-6 TF1 proliferation assay (IC50, pM)” value was 65 pM.
